From patent US20120129720, “APTAMER THAT RECOGNIZES PEPTIDE” (KANAGAWA PREFECTURAL HOSPITAL ORGANIZATION, published 2012)

T1: His-MIF (His-tag/T7 gene 10 leader/Xpress-MIF fusion) (UniProt P14174 P14174:1-115)
T1 chain: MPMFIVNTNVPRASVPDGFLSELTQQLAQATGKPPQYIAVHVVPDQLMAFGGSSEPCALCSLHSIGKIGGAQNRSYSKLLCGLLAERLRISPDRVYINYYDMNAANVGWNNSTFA


How the values were obtained:
[1] = target: T1, His-MIF (His-tag/T7 gene 10 …); test: SPR; data not shown; conditions: MIF 115 aa; ATGen
[2] = target: T1, His-MIF (His-tag/T7 gene 10 …); test: SPR; 600 nM His-MIF; data not shown; conditions: MIF 115 aa; ATGen

Row | Binder | binding result [1] | binding result [2]
1 | X region SEQ 2333 (ssRNA, 3' A20 tail for capture) RNA: GGGACGCUCACGUACGCUCAAAUGACCCCGAUUCCCCUUUCGUGUUGUCUGAUCGCAGGCUCAGUGCCUGGACGUGCAGU | binds | –
2 | #7008 (ssRNA, 3' A20 tail for capture) RNA: GGGACGCUCACGUACGCUCAUUGUCUUGGUGUAUUGGUUACUGUCCAAUGGGCGGUGUAUUCAGUGCCUGGACGUGCAGU | – | binds
3 | X region SEQ 2335 (ssRNA, 3' A20 tail for capture) RNA: GGGACGCUCACGUACGCUCACAGGCUGAUCGCUUCUUUACGUCUAAGUAUUGACUUUAGCUCAGUGCCUGGACGUGCAGU | binds | –
4 | #730 (ssRNA, 3' A20 tail for capture) RNA: GGGACGCUCACGUACGCUCAUUCGACCGGGUUAUUGGCUGCUCUCCUCUGGUUUGUGAUGUCAGUGCCUGGACGUGCAGU | – | binds
5 | #7004 (ssRNA, 3' A20 tail for capture) RNA: GGGACGCUCACGUACGCUCAGGCGUUCUUCGCUGUAGUUCCGGUUUAUUGGUCUUUGUUUUCAGUGCCUGGACGUGCAGU | – | binds
6 | #7029 (ssRNA, 3' A20 tail for capture) RNA: GGGACGCUCACGUACGCUCACGAAAUCCAGGUUUGAUUGGCGUGGCACCCUUGCCAAGUGUCAGUGCCUGGACGUGCAGU | – | binds
7 | X region SEQ 2330 (ssRNA, 3' A20 tail for capture) RNA: GGGACGCUCACGUACGCUCACGCUUUAAUGAUCUGAUCGUGCUUCGCUGCGUAGUAUUGGUCAGUGCCUGGACGUGCAGU | binds | –
8 | X region SEQ 2345 (ssRNA, 3' A20 tail for capture) RNA: GGGACGCUCACGUACGCUCAUAUGUUCGACUUAAUUUGAUCUGCAUGUUUGUCUCCGGGCUCAGUGCCUGGACGUGCAGU | binds | –
9 | X region SEQ 2342 (ssRNA, 3' A20 tail for capture) RNA: GGGACGCUCACGUACGCUCAUGACAUCUGAGGCUUUUUUCUUGGGGAAUUUUCCGAGACCUCAGUGCCUGGACGUGCAGU | binds | –
10 | X region SEQ 2344 (ssRNA, 3' A20 tail for capture) RNA: GGGACGCUCACGUACGCUCAGUCCAUUUUCGUCGUGUAAUUUCGGCAACGGUUCCGGGGAUCAGUGCCUGGACGUGCAGU | binds | –
11 | #748 (ssRNA, 3' A20 tail for capture) RNA: GGGACGCUCACGUACGCUCAGCGCUUCUCGUUUGCUUUCCGGGUUCAUUGGUCCAUGUUUUCAGUGCCUGGACGUGCAGU | – | binds
12 | X region SEQ 2329 (ssRNA, 3' A20 tail for capture) RNA: GGGACGCUCACGUACGCUCAAAACCUGUGCUGAUCGCUGUUGGACAGUUCUACAUGCGCAUCAGUGCCUGGACGUGCAGU | binds | –
13 | #715 (ssRNA, 3' A20 tail for capture) RNA: GGGACGCUCACGUACGCUCAUAGAGUGUAUUUGUACCAGGUAUACUGGCGCGAACGAAUGUCAGUGCCUGGACGUGCAGU | – | binds
14 | #745 (ssRNA, 3' A20 tail for capture) RNA: GGGACGCUCACGUACGCUCAGAGCCACGGGUUUACUGGCGCUAAACAAAUGUUUAGGAUGUCAGUGCCUGGACGUGCAGU | – | binds
15 | #725 (ssRNA, 3' A20 tail for capture) RNA: GGGACGCUCACGUACGCUCACAUGUCCGGGUGGAUUGGAUCGAUUACUUGUUUUCGUUUAUCAGUGCCUGGACGUGCAGU | – | binds
16 | #707 (ssRNA, 3' A20 tail for capture) RNA: GGGACGCUCACGUACGCUCACGGUGGAUUGGCGACGAUGACCUUGAUAGUCCUCGUAAUGUCAGUGCCUGGACGUGCAGU | – | binds
17 | #7030 (ssRNA, 3' A20 tail for capture) RNA: GGGACGCUCACGUACGCUCAAUGAGCUCACCUGGGUAAUUGGCGCCAAUUCAAGGGUCUGUCAGUGCCUGGACGUGCAGU | – | binds
18 | X region SEQ 2337 (ssRNA, 3' A20 tail for capture) RNA: GGGACGCUCACGUACGCUCAUCGUCGUAGGCGUACUGAUCGAAUCGUACUUACUAUUGCGUCAGUGCCUGGACGUGCAGU | binds | –
19 | X region SEQ 2336 (ssRNA, 3' A20 tail for capture) RNA: GGGACGCUCACGUACGCUCAUCGAUUAGAAUACUCUUUGUGCGCCGUCGGCCUGAUCGUUCAGUGCCUGGACGUGCAGU | binds | –
20 | X region SEQ 2327 (ssRNA, 3' A20 tail for capture) RNA: GGGACGCUCACGUACGCUCAAGACUCCUGUGUUUCGGGUGUACUGUCACGAUUCGUUGUCUCAGUGCCUGGACGUGCAGU | binds | –

Row | Binder | binding result [1] | binding result [2]
21 | #7007 (ssRNA, 3' A20 tail for capture) RNA: GGGACGCUCACGUACGCUCAGAGAUCGUUCUGGUUAUUGGCGCCUUCUGAUAAAGGAAUGUCAGUGCCUGGACGUGCAGU | – | binds
22 | #736 (ssRNA, 3' A20 tail for capture) RNA: GGGACGCUCACGUACGCUCACCUCAAGUCGGGUCUAUUGUCUCCGGCGAAGCAUGGACUGUCAGUGCCUGGACGUGCAGU | – | binds
23 | X region SEQ 2347 (ssRNA, 3' A20 tail for capture) RNA: GGGACGCUCACGUACGCUCAUUUUUCCUCUUUGCCCUAUGUUUGGGCGACGCAUCCGGGUUCAGUGCCUGGACGUGCAGU | binds | –
24 | #719 (ssRNA, 3' A20 tail for capture) RNA: GGGACGCUCACGUACGCUCAGCUCUCUUACUUCCUGGGUGACUGGCUCUUUCGGGGUAUGUCAGUGCCUGGACGUGCAGU | – | binds
25 | X region SEQ 2338 (ssRNA, 3' A20 tail for capture) RNA: GGGACGCUCACGUACGCUCAUGAGACUGAUCGUGACAACUCCUGUAUGUUCGAUCUCAUCUCAGUGCCUGGACGUGCAGU | binds | –
26 | X region SEQ 2332 (ssRNA, 3' A20 tail for capture) RNA: GGGACGCUCACGUACGCUCAUUAGACGUUCUCUACGUCCGUGCCGCCCUGAUCGAGCGACUCAGUGCCUGGACGUGCAGU | binds | –
27 | X region SEQ 2341 (ssRNA, 3' A20 tail for capture) RNA: GGGACGCUCACGUACGCUCAUGUCCGCUGUUAAAGAUCGCGACUCUGGGCCCUGAUCGAUUCAGUGCCUGGACGUGCAGU | binds | –
28 | X region SEQ 2328 (ssRNA, 3' A20 tail for capture) RNA: GGGACGCUCACGUACGCUCAAAUUGUCUUCGCGUUGUCUUGAAUGGGUAAUAGUAGACGAUCAGUGCCUGGACGUGCAGU | binds | –
29 | #7034 (ssRNA, 3' A20 tail for capture) RNA: GGGACGCUCACGUACGCUCAAAAUGCUGUUGCAGGUUAUUUGGCUCUCGGUCUGAGAAUGUCAGUGCCUGGACGUGCAGU | – | binds
30 | #7049 (ssRNA, 3' A20 tail for capture) RNA: GGGACGCUCACGUACGCUCACGCUCAGGUGAAUUGGUUACGUUUUCUCUGACAAUGUGGAUCAGUGCCUGGACGUGCAGU | – | binds
31 | X region SEQ 2339 (ssRNA, 3' A20 tail for capture) RNA: GGGACGCUCACGUACGCUCAUGCUGAUCGUUCGGUGAAUCAUUUCCUUACCUACCUACGUUCAGUGCCUGGACGUGCAGU | binds | –
32 | X region SEQ 2343 (ssRNA, 3' A20 tail for capture) RNA: GGGACGCUCACGUACGCUCACUGUGCUCGGAUUUCAUCCGGGUCCUAUACUUCUACUAUAUCAGUGCCUGGACGUGCAGU | binds | –
33 | #7052 (ssRNA, 3' A20 tail for capture) RNA: GGGACGCUCACGUACGCUCAAUUCUGUUCUGUCUCUCCGGGUUUACUGGCGCUAUGAAUGUCAGUGCCUGGACGUGCAGU | – | binds
34 | X region SEQ 2334 (ssRNA, 3' A20 tail for capture) RNA: GGGACGCUCACGUACGCUCACACCUAGAGCCUGAACUGCCUAAGCGCUGAUCGGCAUUUAUCAGUGCCUGGACGUGCAGU | binds | –
35 | #723 (ssRNA, 3' A20 tail for capture) RNA: GGGACGCUCACGUACGCUCAGGUUAUUGGCGCCCUCGAACCAAAAUGGAUGCCGGGAAUGUCAGUGCCUGGACGUGCAGU | – | binds
36 | X region SEQ 2340 (ssRNA, 3' A20 tail for capture) RNA: GGGACGCUCACGUACGCUCAUGUAUUUCUGUUAGUGCUCGGUCCUGCUGAUCGGUUAGACUCAGUGCCUGGACGUGCAGU | binds | –
37 | #743 (ssRNA, 3' A20 tail for capture) RNA: GGGACGCUCACGUACGCUCAACACUUGCUUUUUCUUGUCCGGGUUUAUUGGUCGUUGUAUUCAGUGCCUGGACGUGCAGU | – | binds
38 | #7015 (ssRNA, 3' A20 tail for capture) RNA: GGGACGCUCACGUACGCUCAUGUCUCGGUUUAUUGGCGGUCGGACUUUUGCCCUGCGAUGUCAGUGCCUGGACGUGCAGU | – | binds
39 | X region SEQ 2346 (ssRNA, 3' A20 tail for capture) RNA: GGGACGCUCACGUACGCUCAUGUUCCGGGCCGACUGGCUGUUAGAGAUCUCUGAUGUAGGUCAGUGCCUGGACGUGCAGU | binds | –
40 | X region SEQ 2331 (ssRNA, 3' A20 tail for capture) RNA: GGGACGCUCACGUACGCUCAGAGUCGUUAUCUCCUGUACUAAUCACCUACUGAUCGAGCAUCAGUGCCUGGACGUGCAGU | binds | –
